Test results taken from patent publication EP4810056A2.

Biological target: PD-1 (programmed death 1) on peripheral CD4 T cells of treated subjects (human) (UniProt Q15116)
Assay: flow cytometry of free PD-1 on CD4 T cells of subjects after IV MEDI5752 (receptor occupancy, in vivo dosing >225 mg)

Chain of UniProt Q15116 (Q15116 25-288): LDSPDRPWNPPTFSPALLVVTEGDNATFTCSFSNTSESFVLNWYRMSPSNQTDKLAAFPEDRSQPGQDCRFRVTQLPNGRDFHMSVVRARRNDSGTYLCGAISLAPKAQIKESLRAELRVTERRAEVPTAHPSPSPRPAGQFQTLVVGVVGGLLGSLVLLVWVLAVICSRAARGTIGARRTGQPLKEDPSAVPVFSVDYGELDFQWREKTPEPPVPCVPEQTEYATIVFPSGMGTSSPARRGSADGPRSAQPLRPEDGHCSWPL

For MEDI5752 (bispecific antibody), the peripheral PD-1 receptor occupancy was greater than 90%.
